The experiment has as its system C. elegans. Briefly: C. elegans feeding assay. It is filed as in vivo, Caenorhabditis elegans. Here is the method: The 75G5 strain was obtained from a biodiverse collection of bacterial strains. The strain was grown in Tryptic soy medium overnight at 20° C., with shaking at 225 rpm. 5 to 30 μL of the liquid culture was added into assay wells in 96-well plates. Each assay well contained 120 μL of liquid with ˜50 L1 staged C. elegans, 30 μg/mL tetracycline, 30 μg/mL chloramphenicol, and S-medium. E. coli strain OP50 was used as a negative control. Forty-eight hours later, the assay plates were scored under a microscope by checking the worm's growth and development.
To further characterize the nematicidal activity, the 75G5 strain was cultured in 50 ml Tryptic soy medium at 20° C. for 18 h, with 225 rpm shaking. The cell pellet was collected after centrifugation at 700 rpm and then stored at −80 C. Total protein was extracted from the cell pellet using the B-PER II Bacterial Protein Extraction Reagent from Thermo. The lysate was centrifuged twice at 10,000 rpm and the final supernatant was collected as the total protein sample.
The expression constructs were then transformed into E. coli TOP10 strain with carbenicillin selection. For protein expression, an E. coli overnight culture was diluted by 50 fold and grown at 37° C. for 2.5 hours (to OD600 ˜0.5). Protein expression was induced by adding 0.8 mM IPTG and the culture was grown for another 5 hours at 30° C. […]

B1: RX025: small, active 25 kDa Sphingobacterium spiritivorum protein; putative twin arginine translocation pathway signal protein (protein, listed as Sphingobacterium spiritivorum)
chain: MHRREALQRVALLMGGTVIGANLFLEGCSRSASKDTAKLFEKDSVNFLGDLAEAILPKTSTPGAKEAGVGEFIPVMIRDCYADTEQKVFLDGINTVDERAKKEFGKKFQELSKEDQTKFVNILDKEASEYNAKQAEATKAQREKDALKQNEMYRVPKSDPPHWFTMFKQLTLTGFFTSELGATKALRYVKIPGKFDGNYPYKKGEHAWA
Turning to B1, the “nematicidal activity (worm development)” value (E. coli TOP10 strains expressing the RX025 gene from pMAL (MBP fusion) and pQE80L, IPTG induced) is given as “inhibited worm development, arresting worms at the L1 stage”. The “nematicidal activity of purified protein bands” value (proteins in pooled Mono Q/Mono S fractions of strain 75G5 membrane associated proteins) is recorded as “active”.
